Data reported in US10053668B2, “Reprogramming bone endothelial cells for use in bone angiogenesis and osteogenesis” (MAX-PLANCK-GESELLSCHAFT ZUR FÖRDERUNG DER WISSENSCHAFTEN …, priority 2013, dated 2018).
“Also recorded” adds a separate entry of the source. Where a name gives a salt, the structure may show the parent alone.

B1: Noggin: recombinant Noggin (1967-NG, R&D Systems); secreted protein that binds and antagonises bone morphogenetic proteins (BMPs) (protein, UniProt Q13253 28-232, looked up)
Noggin: QHYLHIRPAPSDNLPLVDLIEHPDPIFDPKEKDLNETLLRSLLGGHYDPGFMATSPPEDRPGGGGGAAGGAEDLAELDQLLRQRPSGAMPSEIKGLEFSEGLAQGKKQRLSKKLRRKLQMWLWSQTFCPVLYAWNDLGSRFWPRYVKVGSCFSKRSCSVPEGMVCKPSKSVHLTVLRWRCQRRGGQRCGWIPIQYPIISECKCSC

Tests used:
[1] = DFM treatment of aged mice, μ-CT analysis of tibia; type: in vivo, mouse; conditions: 6 weeks of DFM treatment, compared to aged control mice
Method: […] […] Animals in the control group were injected with same amount of sterile water.
Tibiae were collected, and the attached soft tissue was removed thoroughly and fixed in 4% paraformaldehyde. The fixed tibiae were analyzed using micro-CT (μCT 35) and software IPL V5.15 at Scanco Medical AG, Switzerland. A voxel size of 12 μm was chosen in all three spatial dimensions. For each sample, 148 from 232 slices were evaluated covering a total of 1.776 mm at a voltage of 70kVp, intensity 114 μA, integration time 1200 ms.

[2] = test system: type H endothelium (CD31^hi/Emcn^hi vessels); assay: DFM treatment of aged mice, CD31/Osterix immunostaining of tibia sections; type: in vivo; conditions: aged 64 to 70 week-old mice; DFM i.p. every alternate day, 15 mg/ml per mouse, four weeks; vs vehicle control
Excerpt: 3-4 weeks old male C57BL/6J mice were used for experiments involving analysis of juvenile mice. For the characterization of changes during aging, 9-11 week-old and 60-70 week-old C57BL/6J males were used as adults and aged mice, respectively. All EC-specific gene deletions were generated using Cdh5(PAC)-CreERT2 transgenic mice, which were interbred with conditional mutants carrying loxP-flanked Hif1α alleles (Hif1α^lox/lox). For experiments, Cdh5(PAC)-CreERT2^T/+ Hif1α^lox/lox were mated with Hif1α^lox/lox females. To induce Cre activity and gene deletion, pups were injected with 500 μg tamoxifen (Sigma, T5648) intraperitoneally everyday from postnatal day (P) 10 to P14. Femurs and tibiae from Cdh5(PAC)-CreERT2^T/+ Hif1α^lox/lox (Hif1α^iΔEC) mutants and Cre-negative (Hif1α^lox/lox) controls were collected on P28 after euthanasia. The same methodology was followed for gene deletion experiments involving conditional Vhl mice. For the specific genetic labeling of metaphyseal vasculature Cdh5(PAC)-CreERT2^T/+ mice were mated with Rosa26-mG/mT reporter line. At P29, Cdh5(PAC)-CreERT2^T/+/R26-mG/mT^d/+ mice received a single dose of 50 μg tamoxifen and were analyzed either 24 hrs (1 day) later or 40 days later. […]
For phenotypic analysis, mutant and littermate control samples were always processed, sectioned, stained, imaged and analysed together at the same conditions and settings. […]

long bone = assay: DFM treatment of aged mice, qPCR of osteoprogenitor and osteoblast markers in long bone; type: in vivo, mouse; conditions: DFM-treated vs control
Method: For DFM treatment, freshly prepared deferoxamine mesylate (Sigma) in water was injected intraperitoneally every alternate day at the dose of 15 mg/ml per mouse over four weeks. For μ-CT analysis, this treatment was continued for five weeks. Animals in the control group were injected with same amount of sterile water.
For the analysis of mRNA expression levels in type H or type L endothelium, CD31^hi/Emcn^hi and CD31^lo/Emcn^lo cells were sorted by FACS directly into the lysis buffer of the RNeasy Mini Kit (QIAGEN). Total RNA was isolated according to manufacturer's protocol. A total of 100 ng RNA per reaction was used to generate cDNA with the iScript cDNA Synthesis System (Bio-Rad). Quantitative PCR (qPCR) was performed using TaqMan gene expression assays on ABI PRISM 7900HT Sequence Detection System. The FAM-conjugated TaqMan probes Tgfb1, Tgfb3, Fgf1, Pdgfa, Pdgfb and Kitl were used along with TaqMan Gene Expression Master Mix (Applied Biosystems). Gene expression assays were normalized to endogenous VIC-conjugated Actb probes as standard. For analysis of mRNA expression levels from whole bones, dissected femurs were immediately crushed finely, digested with collagenase, centrifuged to obtain a pellet, which was then lysed into lysis buffer of RNeasy Mini Kit (QIAGEN). […]

[3] = test system: bone endothelial cells (BECs); assay: DFM treatment of cultured primary bone endothelial cells, qPCR mRNA analysis; type: cell-based, mouse; conditions: isolated primary bone endothelial cells; DFM 6.25 mg/ml of culture medium, 7 hrs; qPCR vs vehicle
Method: Tibiae and femurs from wild-type mice or mice expressing endothelial specific reporters (Flk1 GFP and Cdh5 mtmg mice) or wild-type mice were collected in sterile Ca^2+ and Mg^2+ free PBS, crushed with mortar and pestle, digested with Collagenase A (Sigma) to obtain a single cell suspension. ECs were then MACS sorted using endomucin antibody (cat. no. SC-65495) and Dynabeads sheep anti-Rat IgG (Invitrogen). Sorted ECs were then plated on dishes coated with fibronectin and cultured in endothelial cell growth medium (EBM-2, Clonetics; Lonza) supplemented with EGM-2 SingleQuots (CC-4176, Clonetic; Lonza). At first passage, cells were again MACS sorted with endomucin antibody and plated for culture. Cells were fed every third day and passaged upon confluency. […]
For the analysis of mRNA expression levels in type H or type L endothelium, CD31^hi/Emcn^hi and CD31^lo/Emcn^lo cells were sorted by FACS directly into the lysis buffer of the RNeasy Mini Kit (QIAGEN). […] Quantitative PCR (qPCR) was performed using TaqMan gene expression assays on ABI PRISM 7900HT Sequence Detection System. […]
For the analysis of mRNA expression levels, pure total bone endothelial cells were flow-sorted directly into the lysis buffer of RNeasy Mini Kit (QIAGEN). […] Quantitative PCR (qPCR) was performed using TaqMan gene expression assays on ABI PRISM 7900HT Sequence Detection System. […]

Rbpj^iΔEC mice [4] = assay: Systemic recombinant Noggin in Rbpj^iΔEC mice, immunostaining of tibia sections; type: in vivo, mouse
Excerpt: For Rbpj deletion in the postnatal vasculature, mice carrying loxP-flanked Rbpj gene (Rbpj^floxed) were interbred with mice expressing endothelial specific tamoxifen inducible CreERT2 i.e. Cdh5(PAC)-CreERT2. The males with genotype Rbpj^floxed/floxed Cdh5(PAC)-CreERT2^T/+ were interbred with Rbpj^floxed/floxed females to generate litters with Rbpj^floxed/floxed Cdh5(PAC)-CreERT2^T/+ (Rbpj^iΔEC) and Rbpj^floxed/floxed (control) genotypes. To induce Cre activity and gene deletion, all the litters were injected with 500 μg tamoxifen (Sigma, T5648) intraperitoneally everyday from P10 to P14. Femur and tibia were collected from these animals for analysis on P28 after euthanasia. The same methodology was followed for all gene deletion experiments of Fbxw7 ^iΔEC, Dll^iΔEC, Dll4^iΔEC, Jag1^iΔEC and Rbpj^iΔOB. For osteoblast specific loss of function experiments, Col1α1-CreERT2 mice (embryos purchased from Institut Clinique de la Souris, France) were interbred with Rbpj^floxed/floxed mice. Further, Rbpj floxed/floxed Col1a1-CreERT2^T/+ males were interbred with Rbpj^floxed/floxed females to generate litters with Rbpj^floxed/floxed Col1aCreERT2^T/+ (Rbpj^iΔOB) and Rbpj^floxed/floxed (control) genotypes.
(§1) For experiments involving Noggin treatment, both control and Rbpj^iΔEC mice were injected intraperitoneally once daily with 500 μg/kg recombinant Noggin (1967-NG, R&D Systems) dissolved in PBS in a volume of 50 μl per dose. Another set of control and Rbpj^iΔEC mice was injected with 50ul PBS for experimental control. All protein injections were done from P15 to P27, after tamoxifen treatment (P10-P14) before the day of analysis (P28).
Freshly dissected bone tissues collected from wild-type mice or from mutants and their control littermates were immediately fixed in ice-cold 4% paraformaldehyde solution for 4 hrs. Decalcification was carried out with 0.5M EDTA at 4° C. with constant shaking and decalcified bones were immersed into 20% sucrose and 2% polyvinylpyrrolidone (PVP) solution for 24 hr. Finally, the tissues were embedded and frozen in 8% gelatin (porcine) in presence of 20% sucrose and 2% PVP. For immunofluorescent stainings and morphological analyses, sections were generated using low-profile blades on a Leica CM3050 cryostat.
For phenotypic analysis, mutant and littermate control samples were always processed, sectioned, stained, imaged and analysed together at the same conditions and settings. For immunostaining, bone sections were air-dried, permeabilised for 10 min in 0.3% Triton X-100, blocked in 5% donkey serum at room temperature for 30 min, and probed with the primary antibodies diluted in 5% donkey serum in PBS for 2 hr at room temperature (RT) or overnight at 4° C.
Following are the details of primary antibodies used: Endomucin (sc-65495, Santa Cruz) used at 1:100 dilution; Pecam1 conjugated to Alexa fluor 488 (FAB3628G, R&D Systems) used at dilution 1:100; Pecam1 (553370, BD Pharmingen) used at 1:100 dilution; Osterix (sc-22536-R, Santa Cruz) used at dilution 1:200; Runx2 (MAB2006, R&D Systems) used at dilution 1:200; alpha SMA-Cy3 (C6198, Sigma) used at dilution 1:100; Hif1α (ab65979, Abcam) used at dilution 1:100; Collagen type 1 (AB675P; Millipore); Osteopontin (AF808, R&D Systems) used at dilution of 1:200, Mct4 (sc-50329 Santa Cruz) used at dilution of 1:100 and Glut1 (07-1401, Millipore) used at dilution of 1:100, NG2 Chondroitin Sulphate Proteoglycan (AB5320, Millipore) used at a dilution of 1:100.

[5] = test system: murine mesenchymal progenitors; assay: Osteoblastic differentiation of cultured murine mesenchymal progenitors with Noggin; type: cell-based, mouse; conditions: in vitro, recombinant Noggin
Rbpj^iΔEC mice [6] = assay: Systemic recombinant Noggin in Rbpj^iΔEC mice, calcein double labelling; type: in vivo, mouse; conditions: Noggin 500 μg/kg i.p. once daily P15 to P27, 7 day interval
Method: as §1
Calcein double labeling was performed to calculate mineral apposition rate (MAR).
Mice were given intraperitoneal injections of 10 mg/kg calcein (Sigma, C0875) dissolved in 2% sodium bicarbonate solution at 10th day and 3rd day before euthanasia. Bones were fixed in 4% PFA, embedded in 8% gelatin and 2% PVP and cryosectioned. Single plane images were acquired from the sections using LSM 780 (Carl Zeiss). Mineral Apposition Rate (MAR) is the amount of bone formed during a particular time interval. It is calculated using the distance between the midpoints of two labels divided by time interval (7days).

[7] = Rbpj^iΔEC mice, Noggin 500 μg/kg i.p. once daily P15 to P27, analysis P28, vs saline-treated mutants

| Molecule | bone mass (μ-CT) [1] | Osterix-positive cells (osteoprogenitors) in association with type H vessels [2] | type H endothelium (CD31^hi/Emcn^hi vessels) in long bone [2] | expression levels of mRNAs Sp7, Bglap and lbsp in long bone (long bone) | expression of growth factor mRNAs Pdgfa, Pdgfb, Fgf1, Tgfb1, Tgfb3 [3] | transcripts for CD31 and Endomucin [3] | Endomucin staining intensity (Rbpj^iΔEC mice [4]; Noggin-treated Rbpj^iΔEC tibia sections) | abundance of Runx2+ early osteoprogenitors in metaphysis (Rbpj^iΔEC mice [4]; [7]) | number of Osterix+ (Osx+) cells in metaphysis (Rbpj^iΔEC mice [4]; [7]) | organization of the Rbpj^iΔEC metaphysis (Rbpj^iΔEC mice [4]; [7]) | organization of the Rbpj^iΔEC bone vasculature (endothelial column and arch structures) (Rbpj^iΔEC mice [4]; Rbpj^iΔEC mice, Noggin 500 μg/kg i.p. once daily P15 to P27, endomucin immunostaining) | trabecular bone formation (osteopontin immunostaining) (Rbpj^iΔEC mice [4]; Rbpj^iΔEC mice, recombinant Noggin vs Saline) | differentiation of primary mesenchymal cells into osteoblasts [5] | alkaline phosphatase (ALP) expression ([5]; 28 days of differentiation) | mineral nodule formation (Alizarin staining; osteoblast maturation) ([5]; 28 days of differentiation) | bone formation and mineral apposition rate (Rbpj^iΔEC mice [6]) | bone formation and mineral apposition rate (Rbpj^iΔEC mice [6]; listed as noggin) |
| --- | --- | --- | --- | --- | --- | --- | --- | --- | --- | --- | --- | --- | --- | --- | --- | --- | --- |
| CC(=O)N(O)CCCCCNC(=O)CCC(=O)N(O)CCCCCNC(=O)CCC(=O)N(O)CCCCCN [DFM, deferoxamine mesylate] | significant increase | induces; also recorded: emergence | induces; also recorded: substantial expansion | significantly increased | induction; also recorded: increase | up regulation |  |  |  |  |  |  |  |  |  |  |  |
| B1 |  |  |  |  |  |  | increased | increases | reduced; also recorded: reduces the number of Osterix+ cells to control levels | restores | partially restored | partial restoration | Inhibition; also recorded: inhibits | enhanced; also recorded: maintained even after 28 days | supressed; also recorded: delayed | restored; also recorded: significantly restores | restores |
